Results published in publication PMC12990809.

How the values were obtained:
Assay in all cases: pulldown
Details in all cases: 20 nM protein, 1.5 uM RNA pool; 20 mM HEPES pH 7.8, 70 mM KCl, 10 mM NaCl, 10% glycerol, 2 mM DTT, 0.1 ug/uL BSA; 30 min, 4 C
[1] = target: T1, LmjF.24.1570 (Leishmania major) (UniProt Q4QAH4)
T1 sequence: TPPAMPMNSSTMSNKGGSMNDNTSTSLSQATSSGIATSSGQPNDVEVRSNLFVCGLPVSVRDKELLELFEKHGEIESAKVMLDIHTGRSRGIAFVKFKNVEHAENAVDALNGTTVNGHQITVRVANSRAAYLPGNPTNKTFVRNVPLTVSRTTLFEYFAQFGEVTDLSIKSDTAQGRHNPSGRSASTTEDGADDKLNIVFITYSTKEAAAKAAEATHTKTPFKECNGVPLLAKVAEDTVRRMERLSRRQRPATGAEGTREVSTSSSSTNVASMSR

[2] = target: T2, ENSGALG00000014089 (Gallus gallus) (UniProt A0A8V0XZS6)
T2 sequence: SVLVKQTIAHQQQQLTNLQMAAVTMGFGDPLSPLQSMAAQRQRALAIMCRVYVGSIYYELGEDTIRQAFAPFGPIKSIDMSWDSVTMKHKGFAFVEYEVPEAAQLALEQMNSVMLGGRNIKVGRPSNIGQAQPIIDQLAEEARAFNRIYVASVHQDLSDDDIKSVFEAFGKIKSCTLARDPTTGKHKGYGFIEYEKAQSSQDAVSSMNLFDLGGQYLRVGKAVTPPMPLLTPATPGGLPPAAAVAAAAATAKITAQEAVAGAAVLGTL

[3] = target: T3, NCU00707 (Neurospora crassa) (UniProt Q7SET9)
T3 sequence: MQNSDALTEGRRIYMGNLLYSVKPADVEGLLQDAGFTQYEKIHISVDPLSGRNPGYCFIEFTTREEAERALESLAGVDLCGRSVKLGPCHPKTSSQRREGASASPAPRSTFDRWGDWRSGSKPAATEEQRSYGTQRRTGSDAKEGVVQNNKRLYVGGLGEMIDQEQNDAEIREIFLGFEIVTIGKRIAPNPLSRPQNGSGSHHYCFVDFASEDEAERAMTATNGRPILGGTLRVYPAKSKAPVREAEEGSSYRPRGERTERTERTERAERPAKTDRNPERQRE

[4] = target: RBPMS2 (Monodelphis domestica) (UniProt A0A5F8GJ20)
RBPMS2 (Monodelphis domestica), sequence (A0A5F8GJ20 entry or part of it): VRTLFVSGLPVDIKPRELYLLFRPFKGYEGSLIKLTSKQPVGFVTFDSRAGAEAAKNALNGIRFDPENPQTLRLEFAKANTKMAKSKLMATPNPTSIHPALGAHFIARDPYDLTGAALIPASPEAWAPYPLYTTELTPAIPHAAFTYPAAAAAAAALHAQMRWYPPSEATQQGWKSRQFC

[5] = target: T4, TBPH (Drosophila melanogaster) (UniProt E1JGV0)
T4 sequence: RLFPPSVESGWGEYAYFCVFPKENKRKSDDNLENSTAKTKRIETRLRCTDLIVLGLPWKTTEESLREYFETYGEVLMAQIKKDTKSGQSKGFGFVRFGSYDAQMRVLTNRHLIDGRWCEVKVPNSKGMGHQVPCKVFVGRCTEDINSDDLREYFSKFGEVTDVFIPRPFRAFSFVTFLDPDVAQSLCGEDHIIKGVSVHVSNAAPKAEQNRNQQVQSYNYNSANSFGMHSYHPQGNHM

[6] = target: T5, PK21582.1 S73F;V173L (Cannabis sativa) (UniProt A0A7J6HF55)
T5 sequence: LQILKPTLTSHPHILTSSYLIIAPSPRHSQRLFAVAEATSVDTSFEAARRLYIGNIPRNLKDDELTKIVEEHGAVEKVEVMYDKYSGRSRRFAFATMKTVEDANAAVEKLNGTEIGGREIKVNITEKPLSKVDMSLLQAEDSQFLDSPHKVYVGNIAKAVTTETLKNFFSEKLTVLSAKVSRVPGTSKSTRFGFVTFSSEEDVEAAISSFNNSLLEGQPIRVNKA

[7] = target: T6, sart3 (Tetraodon nigroviridis) (UniProt H3DEK9)
T6 sequence: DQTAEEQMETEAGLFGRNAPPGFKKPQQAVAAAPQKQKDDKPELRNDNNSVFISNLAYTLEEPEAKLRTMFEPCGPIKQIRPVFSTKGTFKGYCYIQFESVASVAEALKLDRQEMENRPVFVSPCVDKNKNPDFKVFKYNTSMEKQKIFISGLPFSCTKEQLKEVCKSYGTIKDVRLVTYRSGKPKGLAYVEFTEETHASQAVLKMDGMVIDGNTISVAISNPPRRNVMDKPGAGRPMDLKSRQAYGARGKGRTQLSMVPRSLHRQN

[8] = target: T7, LmjF.30.1110 (Leishmania major) (UniProt Q4Q7J2)
T7 sequence: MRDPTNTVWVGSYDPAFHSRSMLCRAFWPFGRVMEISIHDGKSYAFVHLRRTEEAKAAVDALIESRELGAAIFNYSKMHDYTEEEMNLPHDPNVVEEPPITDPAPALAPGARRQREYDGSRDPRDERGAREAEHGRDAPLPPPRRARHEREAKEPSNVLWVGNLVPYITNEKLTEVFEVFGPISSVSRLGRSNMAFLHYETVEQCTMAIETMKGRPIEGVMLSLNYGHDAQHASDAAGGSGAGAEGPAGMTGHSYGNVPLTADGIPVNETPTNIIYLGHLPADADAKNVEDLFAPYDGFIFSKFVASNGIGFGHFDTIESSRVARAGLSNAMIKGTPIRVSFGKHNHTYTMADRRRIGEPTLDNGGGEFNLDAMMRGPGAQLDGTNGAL

[9] = target: T8, LmjF.29.1370 (Leishmania major) (UniProt E9ADZ6)
T8 sequence: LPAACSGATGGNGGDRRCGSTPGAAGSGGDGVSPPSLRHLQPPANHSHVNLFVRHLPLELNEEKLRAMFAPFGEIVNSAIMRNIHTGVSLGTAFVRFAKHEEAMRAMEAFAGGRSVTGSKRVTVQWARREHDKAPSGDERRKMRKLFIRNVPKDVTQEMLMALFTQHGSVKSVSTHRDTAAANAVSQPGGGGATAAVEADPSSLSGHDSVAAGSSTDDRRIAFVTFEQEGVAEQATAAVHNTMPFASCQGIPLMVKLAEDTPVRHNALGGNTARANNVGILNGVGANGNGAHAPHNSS

UAUACU [RNAcompete motif RNCMPT00761]
binding signal (z-score (mean of top ten 7-mers)) [1]: 22.5

UUUUUUU [RNAcompete motif RNCMPT00760]
binding signal (z-score (mean of top ten 7-mers)) [2]: 11.4

UUAUGA [RNAcompete motif RNCMPT00768]
binding signal (z-score (mean of top ten 7-mers)) [3]: 7.83

ANCACG [RNAcompete motif RNCMPT00757]
binding signal (z-score (mean of top ten 7-mers)) [4]: 8.74

GANUGA [RNAcompete motif RNCMPT00776]
binding signal (z-score (mean of top ten 7-mers)) [5]: 9.14

ANUGGAA [RNAcompete motif RNCMPT00792]
binding signal (z-score (mean of top ten 7-mers)) [6]: 10.3

AGAGAAG [RNAcompete motif RNCMPT00774]
binding signal (z-score (mean of top ten 7-mers)) [7]: 11.5

AUGAUG [RNAcompete motif RNCMPT00763]
binding signal (z-score (mean of top ten 7-mers)) [8]: 10.7

CAUAGU [RNAcompete motif RNCMPT00762]
binding signal (z-score (mean of top ten 7-mers)) [9]: 29.8
